Source: paper PMC8633003
Numbering of substitutions follows the chain as printed.

Columns and labels:
[1] = molecular target: Aca1 protein of Pseudomonas aeruginosa phage JBD30, full-length (1-79), wild type (Pseudomonas aeruginosa phage JBD30); assay: SEC
Aca1 S42G = molecular target: T1, Aca1 S42G (Pseudomonas aeruginosa phage JBD30, UniProt L7P845 1-79, S42G); assay: ITC
T1 sequence: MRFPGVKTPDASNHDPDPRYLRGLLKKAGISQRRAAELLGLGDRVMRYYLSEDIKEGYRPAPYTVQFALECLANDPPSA

Aca1 Y48A = molecular target: T2, Aca1 Y48A (Pseudomonas aeruginosa phage JBD30, UniProt L7P845 1-79, Y48A); assay: ITC
T2 sequence: T1 sequence with G42S, Y48A

Aca1 = molecular target: T3, Aca1 (Pseudomonas aeruginosa phage JBD30, UniProt L7P845 1-79); assay: ITC
T3 sequence: T1 sequence with G42S

Aca1 V45A = molecular target: T4, Aca1 V45A (Pseudomonas aeruginosa phage JBD30, UniProt L7P845 1-79, V45A); assay: ITC
T4 sequence: T1 sequence with G42S, V45A

Aca1 R59A = molecular target: T5, Aca1 R59A (Pseudomonas aeruginosa phage JBD30, UniProt L7P845 1-79, R59A); assay: ITC
T5 sequence: T1 sequence with G42S, R59A

Aca1 R47A = molecular target: T6, Aca1 R47A (Pseudomonas aeruginosa phage JBD30, UniProt L7P845 1-79, R47A); assay: ITC
T6 sequence: T1 sequence with G42S, R47A

Aca1 R44A = molecular target: T7, Aca1 R44A (Pseudomonas aeruginosa phage JBD30, UniProt L7P845 1-79, R44A); assay: ITC
T7 sequence: T1 sequence with G42S, R44A

Aca1 R22A/Q32A = molecular target: T8, Aca1 R22A/Q32A (Pseudomonas aeruginosa phage JBD30, UniProt L7P845 1-79, R22A;Q32A); assay: ITC
T8 sequence: T1 sequence with R22A, Q32A, G42S

Aca2 R39A = molecular target: T9, Aca2 R39A (Pectobacterium carotovorum temperate …, UniProt H9C180 1-116, R39A); assay: ITC
T9 sequence: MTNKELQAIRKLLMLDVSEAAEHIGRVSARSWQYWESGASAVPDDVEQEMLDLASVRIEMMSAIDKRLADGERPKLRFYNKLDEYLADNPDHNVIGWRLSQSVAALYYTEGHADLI

Aca2 R30A = molecular target: T10, Aca2 R30A (Pectobacterium carotovorum temperate …, UniProt H9C180 1-116, R30A); assay: ITC
T10 sequence: T9 sequence with R30A, A39R

Aca2 Y34A = molecular target: T11, Aca2 Y34A (Pectobacterium carotovorum temperate …, UniProt H9C180 1-116, Y34A); assay: ITC
T11 sequence: T9 sequence with Y34A, A39R

Molecule: Aca1 protein of Pseudomonas aeruginosa phage JBD30, full-length (1-79), wild type (natural protein)
- stoichiometry N [1]: 2

B1: 21-bp IR2 (dsDNA)
DNA 1: ATTAGGCACAATGTGCCTAAT
DNA 2: ATTAGGCACATTGTGCCTAAT
- Kd (Aca1 S42G): 59.2 nM
- Kd (Aca1 Y48A): 2860 nM
- Kd (Aca1): 74.1 nM
- Kd (Aca1 V45A): 364 nM
- binding result (Aca1 R59A): no binding
- binding result (Aca1 R47A): no binding
- binding result (Aca1 R44A): no binding
- binding result (Aca1 R22A/Q32A): no binding

B2: 21-bp IR1 (dsDNA)
DNA 1: AAGCGGCACACTGTGCCTATT
DNA 2: AATAGGCACAGTGTGCCGCTT
- Kd (Aca1): 53.2 nM

B3: 26-bp ZF40-IR1 blunt (dsDNA)
DNA 1: TGCTTGTTCGCGATTGCGAACATATA
DNA 2: TATATGTTCGCAATCGCGAACAAGCA
- binding result (Aca2 R39A): no binding
- binding result (Aca2 R30A): no binding
- binding result (Aca2 Y34A): no binding

B4: 23-bp IR2 (dsDNA)
DNA 1: AATTAGGCACAATGTGCCTAATC
DNA 2: GATTAGGCACATTGTGCCTAATT
- Kd (Aca1): 32.2 nM

B5: 19-bp IR2 blunt (dsDNA)
DNA 1: TTAGGCACAATGTGCCTAA
DNA 2: TTAGGCACATTGTGCCTAA
- Kd (Aca1): 741 nM
